Results on two molecules are retold here after patent US20090012275A1 (VIB VZW, published 2009).

Ends that are not written are not given here. * marks the point of attachment. Biotin = O=C1N[C@H]2[C@H](CS[C@H]2CCCCC(=O)*)N1

The target in assay [1] is T1, glucose-6-phosphate dehydrogenase from Leuconostoc mesenteroides (Sigma) (Leuconostoc mesenteroides, UniProt P11411 2-486).
T1 construct: Bought protein spotted on nitrocellulose
T1 sequence: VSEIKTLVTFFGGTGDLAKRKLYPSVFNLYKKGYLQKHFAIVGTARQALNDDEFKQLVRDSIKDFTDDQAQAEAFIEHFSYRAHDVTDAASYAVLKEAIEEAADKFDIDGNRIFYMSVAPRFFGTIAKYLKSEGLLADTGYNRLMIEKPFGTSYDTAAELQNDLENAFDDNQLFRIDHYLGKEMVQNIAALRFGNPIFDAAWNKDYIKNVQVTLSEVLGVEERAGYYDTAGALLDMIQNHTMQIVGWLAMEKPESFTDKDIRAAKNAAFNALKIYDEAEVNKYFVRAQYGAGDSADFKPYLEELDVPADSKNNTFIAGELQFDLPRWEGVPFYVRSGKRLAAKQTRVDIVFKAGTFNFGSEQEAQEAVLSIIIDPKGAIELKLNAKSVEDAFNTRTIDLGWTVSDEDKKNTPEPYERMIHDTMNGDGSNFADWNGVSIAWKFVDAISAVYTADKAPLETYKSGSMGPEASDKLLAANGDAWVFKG
The assay can be described thus: dot blot: 0.3 mg target protein on nitrocellulose, 10 mM biotinylated peptide, streptavidin-HRP chemiluminescence.

Assay [2] addresses T2, citrate synthase from porcine heart (Roche) (porcine, UniProt P00889 28-464).
T2 construct: Bought protein spotted on nitrocellulose
T2 sequence (looked up): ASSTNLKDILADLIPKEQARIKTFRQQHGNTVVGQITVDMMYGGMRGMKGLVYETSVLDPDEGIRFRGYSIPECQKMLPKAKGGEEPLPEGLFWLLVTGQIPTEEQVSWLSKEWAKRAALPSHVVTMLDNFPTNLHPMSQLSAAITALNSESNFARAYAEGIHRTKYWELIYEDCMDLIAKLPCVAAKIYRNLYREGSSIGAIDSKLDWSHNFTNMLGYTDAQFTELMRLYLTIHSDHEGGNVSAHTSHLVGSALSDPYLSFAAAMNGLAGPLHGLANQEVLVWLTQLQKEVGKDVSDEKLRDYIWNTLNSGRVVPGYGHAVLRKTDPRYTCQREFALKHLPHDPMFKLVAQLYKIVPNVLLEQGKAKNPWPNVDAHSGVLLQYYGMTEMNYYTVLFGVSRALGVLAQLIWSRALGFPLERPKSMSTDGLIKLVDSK
Described as above.

B1: biotin-AFVDAISAVYTA (peptide)
peptide: Biotin-AFVDAISAVYTA
notes: Synthetic biotinylated peptide; also called interferor molecule with a specificity for glucose-6-phosphate dehydrogenase; biotinylated detection peptide
Take B1: the binding result in assay [1] is recorded as “binds”.

B2: biotin-ALFWLLVT (peptide)
peptide: Biotin-ALFWLLVT
notes: Synthetic biotinylated peptide (Jerine Peptide Technologies); biotin is part A, the peptide is part B; also called interferor molecule with a specificity for citrate synthase; biotinylated detection peptide
As for B2, the binding result in assay [2] is recorded as “binds”.
